According to the supplement of paper PMC9732359:
± gives the uncertainty stated by the source.

Test: protein stability index of a GFP-peptide fusion (yeast GPS) (PSI 1-4); higher = more stable; sorted into four equal gates, so the index is relative within each strain
How it was run: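 The protein stability index of a peptide was calculated by multiplying its read frequency in each gate by that gate's number and adding the products. The peptides were tiled 17-residue stretches of yeast proteins, fused downstream of GFP on a Cherry-expressing plasmid and carried in yeast as a pooled library. Mid-log cultures in leucine-free medium were sorted into four equal gates by GFP/Cherry ratio, and each gate's plasmids were PCR-amplified and Illumina-sequenced.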

| Sequence | protein stability index (doa10∆) | protein stability index (pdr5∆) | protein stability index (san1∆) | protein stability index (ubr1∆) |
| --- | --- | --- | --- | --- |
| AELFNNDIKLFVDDTNV [PRP8] | 2.17 ± 0.065 | 2.09 ± 0.053 | 2.46 ± 0.054 | 2.13 ± 0.034 |
| DQAIVTETKRLVVIRFG [DIB1] | 2 ± 0.071 | 2.23 ± 0.062 | 2.03 ± 0.1 | 2.45 ± 0.067 |
| GRILQNLLHSYMEKGTQ [YML103C/NUP188] | 2.66 ± 0.14 | 2.51 ± 0.096 | 1.96 ± 0.086 | 2.51 ± 0.12 |
| PNLIEKMVAKGLNDLVE [BRR2] | 2.51 ± 0.17 | 2.82 ± 0.21 |  | 2.99 ± 0.18 |
| EMDSVSKSMKFSRRFDC [CSN9] | 2.56 ± 0.11 | 2.6 ± 0.076 | 2.71 ± 0.054 | 2.85 ± 0.047 |
| DAGVTFNKEQLNKFKKA [ECM29] | 1.83 ± 0.053 | 2.13 ± 0.11 | 1.55 ± 0.14 | 2.36 ± 0.059 |
| NRKVLQALEKIGIVEIS [RPS19A] | 2.34 ± 0.1 | 2.27 ± 0.1 | 2.24 ± 0.074 | 2.31 ± 0.07 |
| FGYPETIANSIILHFAN [YMR153W/NUP53] | 2.05 ± 0.062 | 2.23 ± 0.067 | 1.88 ± 0.09 | 2.15 ± 0.066 |
| LRKSRETVKLPRVSNQS [RRI2] |  | 3.42 ± 0.22 |  |  |
| RQFVSNVRSVIRSSRSR [RPP1] | 3.08 ± 0.063 | 3.08 ± 0.071 | 2.91 ± 0.064 | 3.09 ± 0.06 |
| AELDLMSGILHCEDKDY [RPN6] | 2.9 ± 0.052 | 3.08 ± 0.047 | 3 ± 0.046 | 3.13 ± 0.038 |
| KSPEQCILRFLQLPIED [SWI3] | 1.81 ± 0.067 | 2.3 ± 0.062 | 1.76 ± 0.12 | 1.41 ± 0.038 |
| GGQTKPVFHKKAKTTKK [RPL42A] | 2.72 ± 0.056 | 2.94 ± 0.076 | 2.73 ± 0.064 | 2.89 ± 0.045 |
| LALETVLIKMVKMLRDN [SIR3] | 2.26 ± 0.11 | 2.06 ± 0.074 | 2.08 ± 0.079 | 1.77 ± 0.092 |
| TGKIVDVVGTLSRNGKP [FAS1] | 3.33 ± 0.15 | 3.6 ± 0.13 | 3.48 ± 0.094 | 3.44 ± 0.071 |
| DSFIFDGTAKEVGDEAD [MED4] | 3.22 ± 0.062 | 3.31 ± 0.057 | 3.38 ± 0.05 | 3.11 ± 0.051 |
| NTEKDYKMVQEQLSKQR [SMC2] | 3.27 ± 0.065 | 3.17 ± 0.072 | 3.25 ± 0.045 | 3.23 ± 0.043 |
| FITAKDKYKLYPVRIPR [YJR042W/NUP85] | 2.87 ± 0.06 | 2.73 ± 0.087 | 3.06 ± 0.077 | 2.89 ± 0.069 |
| EINSVGNPGLPQYQYQR [ITC1] | 2.66 ± 0.11 | 2.59 ± 0.077 | 2.92 ± 0.057 | 3.16 ± 0.067 |
| LISSSLSNLSKDIKANL [YCS4] | 2.26 ± 0.057 | 1.72 ± 0.061 | 1.87 ± 0.1 | 2.35 ± 0.067 |
| KQINEARDEILPLRLQF [PGD1] | 2.13 ± 0.065 | 2.63 ± 0.077 | 2.4 ± 0.074 | 2.77 ± 0.052 |
| GARFDDGAGGDNEVQRT [RPT1] | 3.58 ± 0.2 | 3.4 ± 0.26 | 3.47 ± 0.24 | 3.52 ± 0.083 |
| KAAFEDLKSKGLIPADA [FAS1] | 3 ± 0.09 | 3.29 ± 0.1 | 3.14 ± 0.073 | 3.35 ± 0.066 |
| AIDHLKAELEKQKSWVP [YIL149C/MLP2] | 3.05 ± 0.076 | 2.83 ± 0.073 | 2.98 ± 0.11 | 2.91 ± 0.051 |
| LKEYQSKIIVFPRDGKA [RPL13B] | 2.95 ± 0.082 | 3.17 ± 0.072 | 3.22 ± 0.048 | 3.17 ± 0.054 |
| TENDIKALQSIGQLIGE [RPT4] | 3.21 ± 0.082 | 3.06 ± 0.095 | 2.74 ± 0.099 | 3.23 ± 0.045 |
